Assay results from the supplement of paper PMC6755084.

System: F1*sub RNA substrate (template-directed ligation)
Test: fraction ligated after 30 min (ligated reads / total reads); higher = more ligase activity; sequences stand for … in GAGACCGCAACTGAAAAGTTGT…AGTTCTGCACGTAGAAGCAAAAGGC
Settings: 42 °C
Method in brief: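 Oligo-pool templates of ligase ribozyme variants were PCR-amplified, T7-transcribed and gel-purified. Ligated and unligated bands were gel-separated, reverse transcribed with barcoded primers, and MiSeq-sequenced; core bases were filtered at quality ≥20. Fraction ligated per variant was ligated reads over total reads.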

| Sequence | fraction ligated |
| --- | --- |
| TATCCTTGTCGTAAACACTTGGATGGGTTGA [3d1058] | 0.721 |
| TATCCTTGTCGTAAACACTTTGATGGGTTGA [3d1059] | 0.758 |
| TATCCTTGTCGTAAACACTTTGGAGGGTTGA [3d1061] | 0.0122 |
| TATCCTTGTCGTAAACACTTTGGATGGGTTA [3d1063] | 0.416 |
| TATCCTTGTCGTAAACACTTTGGATGGGTTG [3d1064] | 0.805 |
| TATCCTTGTCGTAAACACTTTGGATGGTTGA [3d1062] | 0.0319 |
| TATCCTTGTCGTAAACACTTTGGTGGGTTGA [3d1060] | 0.0666 |
| TATCCTTGTCGTAAACATTTGGATGGGTTGA [3d1057] | 0.771 |
| TATCCTTGTCGTAAACCTTTGGATGGGTTGA [3d1056] | 0.766 |
| TATCCTTGTCGTAACACTTTGGATGGGTTGA [3d1043] | 0.81 |
| TATCCTTGTCGTAAGAACTTGGATGGGTTGA [3d1076] | 0.591 |
| TATCCTTGTCGTAAGAACTTTGATGGGTTGA [3d1077] | 0.8 |
| TATCCTTGTCGTAAGAACTTTGGAGGGTTGA [3d1079] | 0.00912 |
| TATCCTTGTCGTAAGAACTTTGGATGGGTTA [3d1081] | 0.351 |
| TATCCTTGTCGTAAGAACTTTGGATGGGTTG [3d1082] | 0.779 |
| TATCCTTGTCGTAAGAACTTTGGATGGTTGA [3d1080] | 0.0325 |
| TATCCTTGTCGTAAGAACTTTGGTGGGTTGA [3d1078] | 0.0718 |
| TATCCTTGTCGTAAGAATTTGGATGGGTTGA [3d1075] | 0.79 |
| TATCCTTGTCGTAAGACACTGGATGGGTTGA [3d1097] | 0.756 |
| TATCCTTGTCGTAAGACACTTGATGGGTTGA [3d1098] | 0.745 |
| TATCCTTGTCGTAAGACACTTGGAGGGTTGA [3d1100] | 0.00692 |
| TATCCTTGTCGTAAGACACTTGGATGGGTTA [3d1102] | 0.402 |
| TATCCTTGTCGTAAGACACTTGGATGGGTTG [3d1103] | 0.742 |

| Sequence | fraction ligated |
| --- | --- |
| TATCCTTGTCGTAAGACACTTGGATGGTTGA [3d1101] | 0.0445 |
| TATCCTTGTCGTAAGACACTTGGTGGGTTGA [3d1099] | 0.265 |
| TATCCTTGTCGTAAGACACTTTATGGGTTGA [3d1104] | 0.0278 |
| TATCCTTGTCGTAAGACACTTTGAGGGTTGA [3d1106] | 0.0265 |
| TATCCTTGTCGTAAGACACTTTGATGGGTTA [3d1108] | 0.644 |
| TATCCTTGTCGTAAGACACTTTGATGGGTTG [3d1109] | 0.749 |
| TATCCTTGTCGTAAGACACTTTGATGGTTGA [3d1107] | 0.054 |
| TATCCTTGTCGTAAGACACTTTGGAGGGTTA [3d1115] | 0.00568 |
| TATCCTTGTCGTAAGACACTTTGGAGGGTTG [3d1116] | 0.00286 |
| TATCCTTGTCGTAAGACACTTTGGAGGTTGA [3d1114] | 0.00283 |
| TATCCTTGTCGTAAGACACTTTGGATGGGTT [3d1119] | 0.0366 |
| TATCCTTGTCGTAAGACACTTTGGATGGGTTA [2d107] | 0.401 |
| TATCCTTGTCGTAAGACACTTTGGATGGGTTG [2d108] | 0.781 |
| TATCCTTGTCGTAAGACACTTTGGATGGGTTGA [1d5] | 0.789 |
| TATCCTTGTCGTAAGACACTTTGGATGGTTA [3d1117] | 0.0143 |
| TATCCTTGTCGTAAGACACTTTGGATGGTTG [3d1118] | 0.0169 |
| TATCCTTGTCGTAAGACACTTTGGATGGTTGA [2d106] | 0.0489 |
| TATCCTTGTCGTAAGACACTTTGGGGGTTGA [3d1110] | 0.0067 |
| TATCCTTGTCGTAAGACACTTTGGTGGGTTA [3d1112] | 0.0152 |
| TATCCTTGTCGTAAGACACTTTGGTGGGTTG [3d1113] | 0.0948 |
| TATCCTTGTCGTAAGACACTTTGGTGGTTGA [3d1111] | 0.0166 |
| TATCCTTGTCGTAAGACACTTTGTGGGTTGA [3d1105] | 0.0549 |
| TATCCTTGTCGTAAGACATTGGATGGGTTGA [3d1090] | 0.772 |

| Sequence | fraction ligated |
| --- | --- |
| TATCCTTGTCGTAAGACATTTGATGGGTTGA [3d1091] | 0.775 |
| TATCCTTGTCGTAAGACATTTGGAGGGTTGA [3d1093] | 0.0135 |
| TATCCTTGTCGTAAGACATTTGGATGGGTTA [3d1095] | 0.455 |
| TATCCTTGTCGTAAGACATTTGGATGGGTTG [3d1096] | 0.772 |
| TATCCTTGTCGTAAGACATTTGGATGGTTGA [3d1094] | 0.0378 |
| TATCCTTGTCGTAAGACATTTGGTGGGTTGA [3d1092] | 0.237 |
| TATCCTTGTCGTAAGACCTTGGATGGGTTGA [3d1083] | 0.756 |
| TATCCTTGTCGTAAGACCTTTGATGGGTTGA [3d1084] | 0.762 |
| TATCCTTGTCGTAAGACCTTTGGAGGGTTGA [3d1086] | 0.0073 |
| TATCCTTGTCGTAAGACCTTTGGATGGGTTA [3d1088] | 0.347 |
| TATCCTTGTCGTAAGACCTTTGGATGGGTTG [3d1089] | 0.762 |
| TATCCTTGTCGTAAGACCTTTGGATGGTTGA [3d1087] | 0.0339 |
| TATCCTTGTCGTAAGACCTTTGGTGGGTTGA [3d1085] | 0.212 |
| TATCCTTGTCGTAAGACTTTGGATGGGTTGA [3d1065] | 0.76 |
| TATCCTTGTCGTAAGCACTTGGATGGGTTGA [3d1068] | 0.685 |
| TATCCTTGTCGTAAGCACTTTGATGGGTTGA [3d1069] | 0.754 |
| TATCCTTGTCGTAAGCACTTTGGAGGGTTGA [3d1071] | 0.0111 |
| TATCCTTGTCGTAAGCACTTTGGATGGGTTA [3d1073] | 0.381 |
| TATCCTTGTCGTAAGCACTTTGGATGGGTTG [3d1074] | 0.768 |
| TATCCTTGTCGTAAGCACTTTGGATGGTTGA [3d1072] | 0.0464 |
| TATCCTTGTCGTAAGCACTTTGGTGGGTTGA [3d1070] | 0.0868 |
| TATCCTTGTCGTAAGCATTTGGATGGGTTGA [3d1067] | 0.763 |
| TATCCTTGTCGTAAGCCTTTGGATGGGTTGA [3d1066] | 0.75 |

| Sequence | fraction ligated |
| --- | --- |
| TATCCTTGTCGTAGAACTTTGGATGGGTTGA [3d1045] | 0.792 |
| TATCCTTGTCGTAGACACTTGGATGGGTTGA [3d1048] | 0.782 |
| TATCCTTGTCGTAGACACTTTGATGGGTTGA [3d1049] | 0.804 |
| TATCCTTGTCGTAGACACTTTGGAGGGTTGA [3d1051] | 0.00532 |
| TATCCTTGTCGTAGACACTTTGGATGGGTTA [3d1053] | 0.398 |
| TATCCTTGTCGTAGACACTTTGGATGGGTTG [3d1054] | 0.786 |
| TATCCTTGTCGTAGACACTTTGGATGGGTTGA [2d96] | 0.79 |
| TATCCTTGTCGTAGACACTTTGGATGGTTGA [3d1052] | 0.0426 |
| TATCCTTGTCGTAGACACTTTGGTGGGTTGA [3d1050] | 0.26 |
| TATCCTTGTCGTAGACATTTGGATGGGTTGA [3d1047] | 0.768 |
| TATCCTTGTCGTAGACCTTTGGATGGGTTGA [3d1046] | 0.773 |
| TATCCTTGTCGTAGCACTTTGGATGGGTTGA [3d1044] | 0.774 |
| TATCCTTGTCGTGACACTTTGGATGGGTTGA [3d1042] | 0.798 |
| TATCCTTGTCTAAACACTTTGGATGGGTTGA [3d1017] | 0.793 |
| TATCCTTGTCTAAGAACTTTGGATGGGTTGA [3d1019] | 0.764 |
| TATCCTTGTCTAAGACACTTGGATGGGTTGA [3d1022] | 0.764 |
| TATCCTTGTCTAAGACACTTTGATGGGTTGA [3d1023] | 0.748 |
| TATCCTTGTCTAAGACACTTTGGAGGGTTGA [3d1025] | 0.0172 |
| TATCCTTGTCTAAGACACTTTGGATGGGTTA [3d1027] | 0.394 |
| TATCCTTGTCTAAGACACTTTGGATGGGTTG [3d1028] | 0.773 |
| TATCCTTGTCTAAGACACTTTGGATGGGTTGA [2d94] | 0.798 |
| TATCCTTGTCTAAGACACTTTGGATGGTTGA [3d1026] | 0.047 |
| TATCCTTGTCTAAGACACTTTGGTGGGTTGA [3d1024] | 0.19 |

| Sequence | fraction ligated |
| --- | --- |
| TATCCTTGTCTAAGACATTTGGATGGGTTGA [3d1021] | 0.793 |
| TATCCTTGTCTAAGACCTTTGGATGGGTTGA [3d1020] | 0.786 |
| TATCCTTGTCTAAGCACTTTGGATGGGTTGA [3d1018] | 0.765 |
| TATCCTTGTCTAGACACTTTGGATGGGTTGA [3d1016] | 0.763 |
| TATCCTTGTGAAGACACTTTGGATGGGTTGA [3d1001] | 0.792 |
| TATCCTTGTGTAAACACTTTGGATGGGTTGA [3d1003] | 0.8 |
| TATCCTTGTGTAAGAACTTTGGATGGGTTGA [3d1005] | 0.818 |
| TATCCTTGTGTAAGACACTTGGATGGGTTGA [3d1008] | 0.367 |
| TATCCTTGTGTAAGACACTTTGATGGGTTGA [3d1009] | 0.799 |
| TATCCTTGTGTAAGACACTTTGGAGGGTTGA [3d1011] | 0.0114 |
| TATCCTTGTGTAAGACACTTTGGATGGGTTA [3d1013] | 0.406 |
| TATCCTTGTGTAAGACACTTTGGATGGGTTG [3d1014] | 0.745 |
| TATCCTTGTGTAAGACACTTTGGATGGGTTGA [2d93] | 0.792 |
| TATCCTTGTGTAAGACACTTTGGATGGTTGA [3d1012] | 0.0285 |
| TATCCTTGTGTAAGACACTTTGGTGGGTTGA [3d1010] | 0.062 |
| TATCCTTGTGTAAGACATTTGGATGGGTTGA [3d1007] | 0.796 |
| TATCCTTGTGTAAGACCTTTGGATGGGTTGA [3d1006] | 0.801 |
| TATCCTTGTGTAAGCACTTTGGATGGGTTGA [3d1004] | 0.788 |
| TATCCTTGTGTAGACACTTTGGATGGGTTGA [3d1002] | 0.808 |
